Measured values as given in patent publication US20140242093, “METHODS AND COMPOSITIONS FOR MODULATING THE INNATE IMMUNE RESPONSE AND/OR MYOGENESIS IN A MAMMALIAN SUBJECT” (FRED HUTCHINSON CANCER RESEARCH CENTER, published 2014).

Target: DUX4-fl (Homo sapiens, UniProt Q9UBX2 SEQ:1-424)
Test: EMSA; cold mutant does not compete
Details: tags: pCS2-DUX4-fl, TNT SP6 wheat germ
Method: EMSA was performed with ³²P-labeled 31-bp oligonucleotides from endogenous genomic sequences containing the putative DUX4 binding site as probes (sequences below; only forward shown). Radiolabeled probes were incubated with in vitro translated protein generated from pCS2-DUX4-fl or pCS2-DUX4-s² vectors using the TNT SP6 Coupled Wheat Germ Extract System (Promega) according to manufacturer's instructions. To obtain supershift of protein-DNA complexes, 0.1 μg of E14-3 anti-DUX4 rabbit monoclonal antibody was added to the mixtures. For competition experiments, excess unlabeled probes of either wild-type or mutant sequences were included in the binding reaction. The gels were prepared and run as previously described (Knoepfler et al., 1999).
Electrophoretic mobility shift assay (EMSA) confirmed that DUX4-fl binds the core motifs present in both MaLR-associated and non-repeat associated sites: TRIM48 oligos—the TAATTTAATCA (SEQ ID NO:169) core sequence found near the TRIM48 gene, CSF1R oligos—the TAATTGAATCA (SEQ ID NO:171) core sequence found within the LTR of a THE1B retroelement near the CSF1R gene, and THE1D oligos—the TAATCCAATCA (SEQ ID NO:172) core sequence found within the LTR of the THE1D retroelement. […] Because the DUX4-s alternative splice form retains the N-terminal DNA-binding homeodomains, the inventors hypothesized that it would bind to the same sites as DUX4-fl. EMSA confirmed that DUX4-s specifically binds the same core binding site as DUX4-fl in vitro.

Sequence of DUX4-fl (Q9UBX2 whole entry): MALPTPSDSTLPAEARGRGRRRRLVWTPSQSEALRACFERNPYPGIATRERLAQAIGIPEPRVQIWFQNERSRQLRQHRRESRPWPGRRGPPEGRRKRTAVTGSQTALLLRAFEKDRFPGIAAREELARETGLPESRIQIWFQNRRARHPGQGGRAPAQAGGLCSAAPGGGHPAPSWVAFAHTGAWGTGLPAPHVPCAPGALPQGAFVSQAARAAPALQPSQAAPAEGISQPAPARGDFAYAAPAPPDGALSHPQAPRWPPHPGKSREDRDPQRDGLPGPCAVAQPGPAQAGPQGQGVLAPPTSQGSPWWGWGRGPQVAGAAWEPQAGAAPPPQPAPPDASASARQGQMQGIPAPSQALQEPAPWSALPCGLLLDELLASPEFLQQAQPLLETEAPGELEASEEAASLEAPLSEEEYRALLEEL

B1: TRIM48mut (dsDNA)
DNA 1: AGGAGTGATGATACTTTTATGAGCCGTGCAA
DNA 2: TTGCACGGCTCATAAAAGTATCATCACTCCT
B1: no binding.

B2: THE1Dmut (dsDNA)
DNA 1: CCTGTGGGAGGTACTCCTATGATGGAGGCAG
DNA 2: CTGCCTCCATCATAGGAGTACCTCCCACAGG
B2: no binding.

B3: CSF1Rmut (dsDNA)
DNA 1: CCAGGTGGAGATACTTGTATGATGGGGGCAG
DNA 2: CTGCCCCCATCATACAAGTATCTCCACCTGG
B3: no binding.
